B2: Mutant-2 human BCMA protein-mouse Fc (Fc fusion)
chain: MLQMAGQCSQNEYFDSLLHACIPCQLRCSSNPPGTCQRYCNASVTNSVKGTNAGLGGLVDYKDDDDKTHTCPPCKCPAPNLLGGPSVFIFPPKIKDVLMISLSPIVTCVVVDVSEDDPDVQISWFVNNVEVHTAQTQTHREDYNSTLRVVSALPIQHQDWMSGKEFKCKVNNKDLPAPIERTISKPKGSVRAPQVYVLPPPEEEMTKKQVTLTCMVTDFMPEDIYVEWTNNGKTELNYKNTEPVLDSDGSYFMYSKLRVEKKNWVERNSYSCSVVHEGLHNHHTTKSFSRTPGK
notes: also called mutant-2 human BCMA-mouse Fc (del32-35G); mutant-2 BCMA protein
B3: Mutant-1 human BCMA protein-mouse Fc (Fc fusion)
chain: MLQMAGQCSQNEYFDSGGHACIPCQLRCSSNTPPLTCQRYCNASVTNSVKGTNAGLGGLVDYKDDDDKTHTCPPCKCPAPNLLGGPSVFIFPPKIKDVLMISLSPIVTCVVVDVSEDDPDVQISWFVNNVEVHTAQTQTHREDYNSTLRVVSALPIQHQDWMSGKEFKCKVNNKDLPAPIERTISKPKGSVRAPQVYVLPPPEEEMTKKQVTLTCMVTDFMPEDIYVEWTNNGKTELNYKNTEPVLDSDGSYFMYSKLRVEKKNWVERNSYSCSVVHEGLHNHHTTKSFSRTPGK
notes: also called mutant-1 human BCMA-mouse Fc (17G-18G); mutant-1 BCMA protein

How the values were obtained:
[1] = molecular target: T1, human BAFFR/TNFRSF13C (CD268) Fc tag, from Sino Biological (human, UniProt Q96RJ3 1-71, limits assumed); assay: bio-layer interferometry, antibody coupled to AR2G sensor, BAFFR in solution
T1 construct: Bought protein; not shown: Fc tag
T1 sequence (looked up): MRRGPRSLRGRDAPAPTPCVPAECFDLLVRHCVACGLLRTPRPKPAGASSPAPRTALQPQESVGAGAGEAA
Procedure: (§1) Bio-layer interferometry was used to measure cross-binding between (1) two different anti-BCMA antibodies (BCA7-2C5 or BB C11D5) or a control isotype, and (2) various human antigens including TACI and BAFFR.
(§2) Immobilization of antibody was achieved through standard EDC-catalyzed amide bond formation to create a covalent bond between a reactive amine on the protein and the carboxy-terminated biosensor surface. Briefly, AR2G sensors (OctetRED96e from ForteBio) were activated by EDC-NHS for 6 minutes, then 5 ug/ml antibodies were loaded (BCA7-2C5 antibody, Bluebird C11D5 chimeric antibody, or a human IgG isotype antibody) in 10 mM acetate buffer pH 5.0 for 6 minutes, followed by quenching for 6 minutes with 1M ethanolamine pH 8.5. The 3 minutes baseline step removed any unbound antibody from the biosensor, followed by 1.5 minutes each for association of three analyte proteins TACI (human TACI/TNFRSF13B (CD267) His-tag, from Sino Biological, 1 ug/mL in PBS), BAFFR (human BAFFR/TNFRSF13C (CD268) Fc tag) from Sino Biological, 2 ug/mL in PBS), and human BCMA protein (in-house made with mouse Fc, 2 ug/mL in PBS).

[2] = molecular target: T2, human TACI/TNFRSF13B (CD267) His-tag, from Sino Biological (human, UniProt O14836 1-166, limits assumed); assay: bio-layer interferometry, antibody coupled to AR2G sensor, TACI in solution
T2 construct: Bought protein; not shown: His-tag
T2 sequence (looked up): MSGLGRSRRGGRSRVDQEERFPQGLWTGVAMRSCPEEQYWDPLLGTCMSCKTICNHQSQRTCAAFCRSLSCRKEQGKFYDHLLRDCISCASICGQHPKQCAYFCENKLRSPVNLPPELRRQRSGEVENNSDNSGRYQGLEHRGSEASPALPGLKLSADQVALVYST
Procedure: as §1, §2

[3] = molecular target: T3, Wild type human BCMA protein-mouse Fc (human); assay: bio-layer interferometry, antibody (100 nM) loaded on AR2G sensor, BCMA-mouse Fc in solution
T3 construct: also called wild type human BCMA-mouse Fc; wild type BCMA protein
T3 chain: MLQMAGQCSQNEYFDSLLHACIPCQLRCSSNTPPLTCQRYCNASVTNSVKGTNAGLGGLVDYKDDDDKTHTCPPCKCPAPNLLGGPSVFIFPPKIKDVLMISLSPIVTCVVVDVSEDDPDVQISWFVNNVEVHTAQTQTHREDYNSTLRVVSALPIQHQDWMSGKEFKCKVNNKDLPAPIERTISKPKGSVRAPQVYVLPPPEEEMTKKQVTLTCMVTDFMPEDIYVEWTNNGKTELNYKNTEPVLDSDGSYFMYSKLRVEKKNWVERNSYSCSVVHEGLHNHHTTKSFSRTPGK
Procedure: (§3) The results of the protein-protein binding assays described in Example 8 were used to design an epitope mapping assay using bio-layer interferometry. Various anti-BCMA antibodies (2C5, 2E1, 4C9, 6G8, Bluebird C11D5, GSK J6M0, or isotype control) (100 nM) were loaded onto AR2G sensors and reacted with buffer or one of three types of human BCMA proteins including: including: wild type human BCMA-mouse Fc (SEQ ID NO:5), mutant-1 human BCMA-mouse Fc (double mutation 17G-18G; SEQ ID NO:6), or mutant-2 human BCMA-mouse Fc (mutation del32-35G; SEQ ID NO:7).

[4] = molecular target: B3; assay: as above
Procedure: as §3

[5] = molecular target: B2; assay: as above
Procedure: as §3

[6] = molecular target: T4, his-tagged human BCMA protein (ACROBiosystems, catalog # BCA-H522y-100 ug) (human, UniProt Q02223 1-54); assay: ELISA, his-tagged BCMA on Ni-NTA plate at 2 µg/mL, antibody at 20 µg/mL
T4 construct: limits of the bought construct are not otherwise stated; also called recombinant his-tagged human BCMA; not shown: his tag of the bought protein
T4 sequence: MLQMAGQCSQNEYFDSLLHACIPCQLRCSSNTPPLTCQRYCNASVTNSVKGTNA

BCMA on MM1R cells = molecular target: T5, BCMA on MM1R cells (human, UniProt Q02223); assay: flow cytometry on MM1R cells, 5x serial dilution, FITC goat anti-human IgG F(ab')2, GeoMean BL1-H
T5 construct: full length, on the surface of MM1R multiple myeloma cells; also called MM1R multiple myeloma cell line
T5 sequence (receptor, looked up): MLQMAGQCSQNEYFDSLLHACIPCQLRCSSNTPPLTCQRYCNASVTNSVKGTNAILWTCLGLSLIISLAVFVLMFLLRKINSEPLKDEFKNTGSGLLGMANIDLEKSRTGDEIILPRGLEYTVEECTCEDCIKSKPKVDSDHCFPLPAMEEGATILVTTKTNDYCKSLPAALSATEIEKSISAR
Text: Flow cytometry was used to test antibody binding to multiple myeloma cell line MM1R, using various anti-BCMA antibodies (5× serial dilution) and 80,000 cells per well. The secondary antibody was FITC AffiniPure FAB2 fragment goat anti-human IgG (H+L) (from Jackson Immuno Research). […] A BL-1 detector (IntelliCyt iQue Screener Plus) which detects at 530 nm was used. The geometric mean is reported.

[7] = molecular target: T6, his-tagged mouse BCMA protein (ACROBiosystems, catalog # BCA-M52H3) (mouse, UniProt O88472 1-49); assay: ELISA, his-tagged BCMA on Ni-NTA plate at 2 µg/mL, anti-human Fc HRP
T6 construct: Bought protein; not shown: his tag
T6 chain (looked up): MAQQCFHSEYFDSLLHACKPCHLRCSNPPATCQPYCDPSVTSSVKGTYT
Procedure: Cross-reactivity of the anti-BCMA antibodies with his-tagged BCMA protein from human, cynomolgus or mouse, were analyzed by ELISA assay. The Ni-NTA plate was coated with his-tagged BCMA proteins (listed in Example 2 above) at 2 μg/mL, then reacted with an anti-BCMA antibody at 20 μg/mL, and reacted with anti-human Fc HRP (KPL Scientific, catalog #5220-0279) at 1:2500 dilution. […] Each set includes 5 test antigens or buffer, from left to right: negative control antigen, his-tagged mouse BCMA protein, his-tagged cynomolgus BCMA protein, his-tagged human BCMA protein, and Dulbecco's Phosphate-Buffered Saline.

[8] = molecular target: T7, human APRIL protein (R&D Systems, catalog #5860-AP-010/CF) (human, UniProt O75888 105-250, limits assumed); assay: bio-layer interferometry, APRIL on AR2G sensor, BCMA-mouse Fc at 2.5 µg/mL
T7 construct: Bought protein; also called human APRIL protein from R&D Systems; TNF13
T7 sequence (looked up): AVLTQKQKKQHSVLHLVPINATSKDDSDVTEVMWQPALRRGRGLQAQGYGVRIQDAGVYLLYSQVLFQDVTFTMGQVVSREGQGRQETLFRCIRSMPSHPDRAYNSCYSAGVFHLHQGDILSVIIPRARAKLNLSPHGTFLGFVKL
Procedure: (§4) Bio-layer interferometry was also used to measure binding between APRIL protein, and wild type or mutant BCMA proteins. Human APRIL protein (R&D Systems, catalog #5860-AP-010/CF) was loaded onto an Ar2G sensor (OctetRET96e) and reacted with 2.5 μg/mL of one of three types of human BCMA proteins including: wild type human BCMA-mouse Fc (SEQ ID NO:5), mutant-1 human BCMA-mouse Fc (17G-18G; SEQ ID NO:6), or mutant-2 human BCMA-mouse Fc (de132-35G; SEQ ID NO:7).

[9] = molecular target: T7, human APRIL protein (R&D Systems, …); assay: bio-layer interferometry, APRIL on AR2G sensor, BCMA-mouse Fc in solution
Procedure: as §4

B1: Bluebird C11D5 antibody (BB anti-BCMA Ab) (antibody, V domains shown)
VH: QIQLVQSGPELKKPGETVKISCKASGYTFTDYSINWVKRAPGKGLKWMGWINTETREPAYAYDFRGRFAFSLETSASTAYLQINNLKYEDTATYFCALDYSYAMDYWGQGTTLTVSS
VL: DIVLTQSPASLAMSLGKRATISCRASESVSVIGAHLIHWYQQKPGQPPKLLIYLASNLETGVPARFSGSGSGTDFTLTIDPVEEDDVAIYSCLQSRIFPRTFGGGTKLEIK
notes: Comparator anti-BCMA antibody; also called BB C11D5; Bluebird antibody
B1: no binding (tested: 2 ug/mL) [1]; no binding (tested: 1 ug/mL) [2]; binds [3]. B1: binds [4]; binds [5]; binds [6]. B1: binds (BCMA on MM1R cells); no binding (tested: 20 µg/mL) [7].

B2: binds [8].

B3: no binding (tested: 2.5 µg/mL) [9].

From patent publication US20210388097A1 (SORRENTO THERAPEUTICS, published 2021)
